Measurements reported in patent publication US20120201835A1 (MERCK, published 2012).

T1: Mouse Dkk-1 (mouse, UniProt O54908 32-272)
T1 construct: Recombinant; also called MsDkk-1; murine Dkk-1
T1 sequence (looked up): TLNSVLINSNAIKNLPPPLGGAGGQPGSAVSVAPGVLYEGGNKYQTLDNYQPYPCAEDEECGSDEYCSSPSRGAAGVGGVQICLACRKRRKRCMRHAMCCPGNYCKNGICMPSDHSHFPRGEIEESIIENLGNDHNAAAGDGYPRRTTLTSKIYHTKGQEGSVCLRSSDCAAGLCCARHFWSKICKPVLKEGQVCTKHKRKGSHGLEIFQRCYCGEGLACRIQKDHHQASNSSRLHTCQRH

T2: Rhesus monkey Dkk-2 (chimeric protein: N-terminal region of rhesus Dkk-1 fused to the C-terminal region of … (Rhesus monkey))
T2 chain: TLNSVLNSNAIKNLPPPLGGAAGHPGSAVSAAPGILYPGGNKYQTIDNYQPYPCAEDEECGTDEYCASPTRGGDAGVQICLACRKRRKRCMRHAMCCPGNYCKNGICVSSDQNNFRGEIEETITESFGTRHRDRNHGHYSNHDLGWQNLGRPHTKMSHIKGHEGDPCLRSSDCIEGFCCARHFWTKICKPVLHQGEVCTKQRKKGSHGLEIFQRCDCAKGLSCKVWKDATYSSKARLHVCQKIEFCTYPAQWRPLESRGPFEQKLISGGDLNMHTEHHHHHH

T3: Human Dkk-1 (human, UniProt O94907 32-266)
T3 sequence: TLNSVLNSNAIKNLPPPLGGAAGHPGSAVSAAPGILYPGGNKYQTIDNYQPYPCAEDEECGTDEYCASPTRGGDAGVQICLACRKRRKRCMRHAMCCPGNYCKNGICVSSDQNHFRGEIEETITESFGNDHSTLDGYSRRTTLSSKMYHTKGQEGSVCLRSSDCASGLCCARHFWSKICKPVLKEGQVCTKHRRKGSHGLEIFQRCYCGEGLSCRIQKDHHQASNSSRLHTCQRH


Experiments:
Mouse Dkk-1 [1] = molecular target: T1, Mouse Dkk-1; assay: TRF cell assay, inhibition of Eu-labeled mouse Dkk-1 binding to cells
Procedure: For the assay, the anti-Dkk-1 antibodies were added to HEK cells overexpressing LRP5 (HEK293hLrp5 cells) at final concentrations of 0.2, 0.6, 2.0, 6.0, and 20 nM. Anti-IL3 Receptor monoclonal antibody (8B4) was used as a negative control. Eu-labeled Dkk-1 (100 pM) was incubated with the cells in absence or presence of the antibodies for 20 minutes. Dkk-1 bound in solution by the antibodies and thus blocked from binding to the cell surface of the HEK293hLrp5 cells was removed by 4× wash steps and Eu-labeled Dkk-1 bound to cell surface was measured by TRF signal. Eu-labeled Dkk-1 protein binding to HEK293 cells overexpressing human LRP5 or LRP6 was monitored by measuring the time-resolved fluorescence of bound ligand.

[2] = molecular target: Rhesus monkey Dkk-1 (Rhesus monkey); assay: cell-based or functional assay
[3] = molecular target: T2, Rhesus monkey Dkk-2 (chimeric protein: …); assay: dot blot of native recombinant protein (0 to 100 ng per spot) probed with RH2-18
Procedure: Native recombinant rhesus monkey Dkk-1, Dkk-2, and cynomolgus monkey Dkk-4 proteins (0.1 ng to 100 ng) were used. A non-related recombinant protein was loaded as a control for non-specific assay signal (HIS protein) and probed with the RH2-18 antibodies.
The Dkk-1 amino acid sequence is closely related to that of Dkk-2 and Dkk-4 with 50% and 45% identity at the amino acid-level, respectively. Cross-reactivity of RH2-18 against rhesus monkey Dkk-2 (using a chimeric protein consisting of the N-terminal region of the rhesus Dkk-1 fused to the C-terminal region of the rhesus Dkk-2 with myc and His-6 tags at the C-terminal end of the Dkk-2 C-terminal region; see SEQ ID NO:71) and cynomolgus monkey Dkk-4 (SEQ ID NO:70) was tested by dot-blot analysis using recombinant proteins. Native recombinant rhesus monkey Dkk-1, Dkk-2, and cynomolgus monkey Dkk-4 proteins (0.1 ng to 100 ng) were used. A non-related recombinant protein was loaded as a control for non-specific assay signal (HIS protein). The dot blots were probed with RH2-18. […] Selectivity of the antibody towards Dkk-1 was minimally 100-fold.

[4] = molecular target: Rhesus monkey Dkk-1 (Rhesus monkey); assay: dot blot of native recombinant proteins, 0.1 ng to 100 ng
[5] = molecular target: Rhesus monkey Dkk-1 (Rhesus monkey); assay: TRF cell assay, inhibition of Eu-Dkk-1 binding to HEK293hLrp5 cells
[6] = molecular target: Rhesus monkey Dkk-1 (Rhesus monkey); assay: TRF cell-based blocking assay: Eu-labeled rhesus Dkk-1 binding to human LRP5 on HEK293hLrp5 cells, RH2-18 titrated over an extended range; no unit is printed beside the number or on the log axis, M follows from 4.75 nM in paragraph 132
[7] = molecular target: Rhesus monkey Dkk-1 (Rhesus monkey); assay: SPR, Biacore 3000, several independent runs with different antibody lots
Human Dkk-1 [8] = molecular target: T3, Human Dkk-1; assay: as above
Procedure: (§1) The affinity of the RH2-18 antibody for human Dkk-1 and Rhesus Dkk-1 was determined by measuring RH2-18 binding kinetics by surface plasmon resonance in a Biacore 3000 instrument according to manufacturer's instructions (Biacore, Inc., Piscataway, N.J.). Several independent affinity studies were performed using different RH2-18 antibody lots against human Dkk-1 and rhesus Dkk-1.

Human Dkk-1 [9] = molecular target: T3, Human Dkk-1; assay: SPR, Biacore 3000, mean of several independent runs
Procedure: as §1

[10] = molecular target: Rhesus monkey Dkk-1 (Rhesus monkey); assay: TRF cell assay, inhibition of Eu-Dkk-1 binding to HEK293hLrp5 cells, extended dose range
[11] = molecular target: Rhesus monkey Dkk-1 (Rhesus monkey); assay: SPR, Biacore 3000, mean of several independent runs
[12] = molecular target: Rhesus monkey Dkk-1 (Rhesus monkey); assay: TRF cell assay: inhibition of Eu-Dkk-1 binding to HEK293 cells overexpressing LRP5 or LRP6, scFv
Mouse Dkk-1 [13] = molecular target: T1, Mouse Dkk-1; assay: phage ELISA (+), scFv-phage on mouse Dkk-1

Binder	binding result (Mouse Dkk-1 [1])	pTOPflash/Lef-1 luciferase reporter in HEK293hLrp5 cells, Wnt3A plus 50 nM rhesus Dkk-1 [2] [nM]	% inhibition of Dkk-1 [12] [%]	binding result (Mouse Dkk-1 [13])	other results
RH1-10 antibody (antibody, human IgG2, lambda, V domains shown, IgG converted from the scFv, IgG2M4 heavy chain constant region) VH: QVQLLQSAAEVKKPGESLKISCKGSGYDFPGYYLHWVRQAPGQGLEWMGWINANSGATNYAQNFQGRVTMTRDTSISAAYMELSSLRSDDTAVYYCTREDHWGRGTTVTVSS VL: QSVLTQPPSASGAPGQRVTISCTGSSSNIGAGYDVHWYQQLPGAAPKLLIYGNSNRPSGVPDRFSGSKSGTSASLAITGLQAEDEADYYCQSYDSSLSGYVFGTGTKVTVLG	binds	> 30	–	–	–
RH2-18 antibody (antibody, human IgG2, lambda, V domains shown, also called anti-Dkk-1 antibody RH2-18) VH: EVQLVQSGAEVKKPGASVKVSCKASGYTFTDYYIHWVRQAPGQGLEWMGWIHSNSGATTYAQKFQARVTMSRDTSSSTAYMELSRLESDDTAMYFCSREDYWGQGTLVTVSS VL: QSVLTQPPSVSGAPGQRVTISCTGSSSNIGAGYDVHWYQQLPGTAPKLLIYGYSNRPSGVPDRFSGSKSGASASLAITGLRPDDEADYYCQSYDNSLSSYVFGGGTQLTVLS	binds	> 30	–	–	binding result [3]: no binding (tested: 100 ng); detection limit for binding [4]: 1 ng; selectivity towards Dkk-1 (fold, against Dkk-2 and Dkk-4) [4]: > 100 fold; inhibitory activity (concentration) [5]: 4.75 nM; EC50 [6]: 4.75 nM; Kd [7]: 0.771 to 0.934 nM; Kd (Human Dkk-1 [8]): 0.202 to 0.269 nM; Kd (Human Dkk-1 [9]): 0.251 nM; endogenous ALP activity of C3H10T1/2 cells (osteoblastic differentiation), Wnt3A plus recombinant Dkk-1, 3 days [2]: 100 nM; effective dose [10]: 5 nM; Kd [11]: 0.858 nM
RH2-80 antibody (antibody, human IgG2, lambda, V domains shown, IgG converted from the scFv, IgG2M4 heavy chain constant region) VH: EVQLVQSGAEVKKPGASVKVSCKASGYTFTDYYIHWVRQAPGQGLEWMGWIHSNSGATTYAQKFQARVTMSRDTSSSTAYMELSRLESDDTAMYFCSREDYWGKGTMVTVSS VL: QAVLTQPSSVSGAPGQRVSISCTGSSSNIGAAYDVHWYQQLPGTAPRLLIYVNNNRPSGVPDRFSGSKSGTSASLVIAGLQAEDEADYYCQSYDNSLNAYVFGTGTKLTVLG	binds	> 30	–	–	–
RH2-18 scFv (phage clone) (scFv, V domains shown, Single chain Fv from the CAT phage display library (CS)) VH: EVQLVQSGAEVKKPGASVKVSCKASGYTFTDYYIHWVRQAPGQGLEWMGWIHSNSGATTYAQKFQARVTMSRDTSSSTAYMELSRLESDDTAMYFCSREDYWGQGTLVTV VL: QSVLTQPPSVSGAPGQRVTISCTGSSSNIGAGYDVHWYQQLPGTAPKLLIYGYSNRPSGVPDRFSGSKSGASASLAITGLRPDDEADYYCQSYDNSLSSYVFGGGTQLTVLS	–	–	74	binds	–
RH2-59 scFv (phage clone) (scFv, V domains shown, Single chain Fv from the CAT phage display library (CS)) VH: EVQLVQSGAEVKKPGASVKVSCKASGYTFTDYYIHWVRQAPGQGLEWMGWIHSNSGATTYAQKFQARVTMSRDTSSSTAYMELSRLESDDTAMYFCSREDYWGRGTMVTVSS VL: QAVLTQPSSVSGAPGQRVTISCTGSSSNIGAGYDVHWYQQLPGTAPKLLIYANTNRPSGIPDRFSGSKSGTSASLAITGLQTEDEADYYCQSYDTSPSASYVFGTGTKLTVLG	–	–	61	binds	–
RH2-80 scFv (phage clone) (scFv, V domains shown, Single chain Fv from the CAT phage display library (CS)) VH: EVQLVQSGAEVKKPGASVKVSCKASGYTFTDYYIHWVRQAPGQGLEWMGWIHSNSGATTYAQKFQARVTMSRDTSSSTAYMELSRLESDDTAMYFCSREDYWGKGTMVTVSS VL: QAVLTQPSSVSGAPGQRVSISCTGSSSNIGAAYDVHWYQQLPGTAPRLLIYVNNNRPSGVPDRFSGSKSGTSASLVIAGLQAEDEADYYCQSYDNSLNAYVFGTGTKLTVLG	–	–	62	binds	–
RH1-10 scFv (phage clone) (scFv, V domains shown, Single chain Fv from the CAT phage display library (BMV)) VH: QVQLLQSAAEVKKPGESLKISCKGSGYDFPGYYLHWVRQAPGQGLEWMGWINANSGATNYAQNFQGRVTMTRDTSISAAYMELSSLRSDDTAVYYCTREDHWGRGTTVTVSS VL: QSVLTQPPSASGAPGQRVTISCTGSSSNIGAGYDVHWYQQLPGAAPKLLIYGNSNRPSGVPDRFSGSKSGTSASLAITGLQAEDEADYYCQSYDSSLSGYVFGTGTKVTVLG	–	–	89	binds	–
RH2-59 antibody (antibody, human IgG2, lambda, V domains shown, IgG converted from the scFv, IgG2M4 heavy chain constant region) VH: EVQLVQSGAEVKKPGASVKVSCKASGYTFTDYYIHWVRQAPGQGLEWMGWIHSNSGATTYAQKFQARVTMSRDTSSSTAYMELSRLESDDTAMYFCSREDYWGRGTMVTVSS VL: QAVLTQPSSVSGAPGQRVTISCTGSSSNIGAGYDVHWYQQLPGTAPKLLIYANTNRPSGIPDRFSGSKSGTSASLAITGLQTEDEADYYCQSYDTSPSASYVFGTGTKLTVLG	binds	–	–	–	–
